In patent US6355611B1, “Salt form of a conjugate useful in the treatment of prostate cancer” (Merck & Co., Inc., priority 1999, dated 2002):
In brackets after ≈: the same amount, converted by molar mass. Read-outs that look alike come from different tables or passages of the source. Starred links: 1 amine or outer side, 2 acyl side, 3 side chain; linkers in the order of their positions; H or OH if unused. Non-standard residues stand in square brackets, D forms with d. Residues, ends and D or L forms follow the SMILES beside them. ξ: configuration not given here. *: point of attachment. X1 = COc1cccc2c1C(=O)c1c(O)c3c(c(O)c1C2=O)C[C@@](O)(C(=O)CO)C[C@@H]3OC1CC(N*)C(O)C(C)O1; X2 = COc1cccc2c1C(=O)c1c(O)c3c(c(O)c1C2=O)CC(O)(C(=O)CO)CC3OC1CC(N*)C(O)C(C)O1; Glutaryl = O=C(CCCC(=O)[*:2])[*:1]; Hyp = O=C(O)[C@@H]1C[C@@H](O)CN1; Chg = N[C@H](C(=O)O)C1CCCCC1; ξChg = NC(C(=O)O)C1CCCCC1; ξHyp = O=C(O)C1CC(O)CN1; ξS = NC(CO)C(=O)O; ξA = CC(N)C(=O)O

How the values were obtained:
Assay type in all cases: physicochemical
[1] = Solubility in water at room temperature
Description: (§1) It has further been discovered that the sodium salt of the Formula 5 offers advantages with respect to dissolution in water.
It has further been discovered that the lyophilized formulation offers advantages with respect to dissolution in water.

[2] = Thermal / storage stability; settings: sodium salt compared with free acid
Description: (§2) An aqueous solution of the sodium salt of the instant invention has a pH of greater than 5.0. It has been discovered that the bond between the sugar moiety of doxorubicin and the tetracyclic doxorubicinone moiety is more readily cleaved at aqueous pH of less than 4.0. Therefore the sodium salt offers clear formulation advantages over the free acid, which has an unbuffered aqueous pH of less than 4.0.
In particular, the lyophilized formulation is prepared by the addition of a salt of a carboxylic acid to an aqueous solution of the previously described free acid compound 4. The amount of carboxylate salt that is added to the prelyophilization solution of the compound of formula 4 is from about 3 molar equivalents of base of trisodium citrate per mole of compound 4 to about 9 molar equivalents of base per mole of compound 4. Preferably, the amount of salt that is added is about 5 molar equivalents of base per mole of compound 4.

[3] = Aggregate formation on dissolution in water (filtration through 0.22μ filter)
Description: as §1

pH of aqueous solution = settings: unbuffered aqueous solution
Description: as §2

Structure (SMILES)	solubility [1]	solubility ([1]; pH 2.35)	solubility ([1]; pH 5.72, water)	thermal stability [2]	formation of aggregates on dissolution in water [3]	pH of aqueous solution (pH of aqueous solution)	solubility ([1]; room temperature, water, read-out: solubility)
COc1cccc2c1C(=O)c1c(O)c3c(c(O)c1C2=O)C[C@@](O)(C(=O)CO)C[C@@H]3OC1CC(NC(=O)[C@H](CC(C)C)NC(=O)[C@H](CO)NC(=O)[C@H](CCC(N)=O)NC(=O)[C@@H](NC(=O)[C@H](CO)NC(=O)[C@H](C)NC(=O)[C@@H]2C[C@@H](O)CN2C(=O)CCCC(=O)O)C2CCCCC2)C(O)C(C)O1 (stereo partly drawn) [Compound 4, [N-Glutaryl-(4-trans-L-Hyp)]-Ala-Ser-Chg-Gln-Ser-Leu-Dox] (Glutaryl-[Hyp]AS[Chg]QSL-X1)	13.8 mg/mL of water	3.98 mg/mL (≈ 2850 µM)	> 156 mg/mL				
COc1cccc2c1C(=O)c1c(O)c3c(c(O)c1C2=O)CC(O)(C(=O)CO)CC3OC1CC(NC(=O)[C@H](CC(C)C)NC(=O)C(CO)NC(=O)[C@H](CCC(N)=O)NC(=O)C(NC(=O)C(CO)NC(=O)C(C)NC(=O)C2CC(O)CN2C(=O)CCCC(=O)[O-])C2CCCCC2)C(O)C(C)O1.[Na+] (stereo partly drawn) [Compound 5, [N-Glutaryl-(4-trans-L-Hyp)]-Ala-Ser-Chg-Gln-Ser-Leu-Dox Sodium salt] (Glutaryl-[ξHyp][ξA][ξS][ξChg]Q[ξS]L-X2)				more thermally stable than the corresponding free acid compound	dissolves in water without forming aggregates	greater than 5.0	> 277 mg/mL
